± gives the standard deviation.

Results on 72 sequences are retold here after the supplement of paper PMC10567573.

A short description of the data set: protein stability index of a GFP-peptide fusion (GPS, HEK-293T) (PSI 1-6); higher = more stable.
Setting [1] is: treatment: DMSO, c terminus: a fixed tail appended.
Where [2] appears, read: treatment: MLN4924 1 uM, 8 h, c terminus: a fixed tail appended.
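Note: 24-mer peptide tiles fused after GFP, lentivirally expressed, FACS-sorted into six equal bins by GFP/DsRed ratio, decoded by Illumina sequencing, PSI is the read-weighted mean bin number.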

Turning to LREIRMLKQLKHPNLVNLIEVFRR [CDKL4], the protein stability index is, setting by setting: under setting [1], 2.31 ± 0.3; under setting [2], 2.13 ± 0.67.
The corresponding values for LRFSGVNDTDFRVYLLGNPVVWWL [POMT2] are 2.85 ± 0.43 and 2.96 ± 0.6.
The corresponding values for LRGKSIKRAPGEETEKEEEEEDRE [NEUROD6] are 5.66 ± 0.45 and 5.67 ± 0.3.
The corresponding values for LRKKKTTKLRLERVKFRRQEANAR [NEUROD6] are 3.59 ± 0.34 and 3.59 ± 0.27.
LRPQRTKQYVLLSILLCLLASGLV [TMEM106C] gave a protein stability index under setting [1] of 3.11 ± 0.38 and a protein stability index under setting [2] of 2.9 ± 0.26.
With LRQRESKWLDMLNNWDKWMAKKHK [TBC1D10A], the protein stability index reads like this: under setting [1], 2.9 ± 0.24; under setting [2], 3.2 ± 0.41.
On the same counts, the results for LSEALKEATKEVHTQAENAEFMRN [HMOX1] are 4.92 ± 0.1 and 5.01 ± 0.48.
For the sequence LSELPPLEDMGQPPAEEAEQPGAL [FKBP8], the protein stability index under setting [1] is 5.59 ± 0.18 and the protein stability index under setting [2] was 5.72 ± 0.24.
On the same counts, the results for LSGGLGAGSCRLGSAGGLGSTLGG [KRT17] are 2.47 ± 0.23 and 2.37 ± 0.28.
On the same counts, the results for LSIVLERMRYEGVVDIFQTVKMLR [PTPRD] are 2.1 ± 0.48 and 2.42 ± 0.58.
Turning to LSLLTNRGSKMFKLRQMRVEKFIY [MYOZ1], the protein stability index reads like this: under setting [1], 2.13 ± 0.34; under setting [2], 2.38 ± 0.14.
With LSLRQTGSPGMIYSTRYGSPKRQL [KCNAB2], the protein stability index worked out at 2.98 ± 0.51 under setting [1] and 3.17 ± 0.31 under setting [2].
On the same counts, the results for LSQPTTNLVAGCLQLNARSFMMGQ [NEUROD6] are 2.31 ± 0.17 and 2.21 ± 0.26.
Turning to LSSWELEAWYEDLQEVLSSDENGG [DDIT3], the protein stability index was 3.19 ± 0.39 under setting [1] and 3.29 ± 0.34 under setting [2].
The corresponding values for LSVIQMVAFLEQRASALLASCSKN [FBXO34] are 2.81 ± 0.35 and 2.71 ± 0.71.
As to LTEIYRIVSQKQIADRAAHDESPG [RAB11B], the protein stability index is 3.52 ± 0.12 under setting [1] and 3.52 ± 0.27 under setting [2].
On the same counts, the results for LTISAAFNIVYIYTSELYPTVIRN [SLC22A15] are 3.19 ± 0.14 and 3.13 ± 0.33.
Take LTRRLAHGEELRVSARSREGRGGR [HAGHL]: the protein stability index was found to be 4.87 ± 0.22 under setting [1] and 4.99 ± 0.079 under setting [2].
Sequence LTVRLHTQSVSECITEDGRTVAVG [PWWP2B] showed a protein stability index under setting [1] of 3.2 ± 0.33 and a protein stability index under setting [2] of 3.15 ± 0.044.
Regarding LVENDQQLQKILSIPQSSLEPLKA [ACSBG2], the protein stability index runs as follows: under setting [1], 3.66 ± 0.34; under setting [2], 3.99 ± 0.41.
For LVETNRREVEQWFATQTEELNKQV [KRT33B], the protein stability index is, setting by setting: under setting [1], 4.41 ± 0.21; under setting [2], 4.49 ± 0.31.
On the same counts, the results for LVGDSDVGKGEILASLQDGAAESP [RAB40B] are 5.18 ± 0.17 and 5.36 ± 0.32.
Turning to LVKNLKDTLGLGKTRRKTSARDAS [NCK2], the protein stability index runs as follows: under setting [1], 3.19 ± 0.38; under setting [2], 3.35 ± 0.3.
Consider LVVPNKGYSSLDQSPDEKPLVALD [FAM219A], for which the protein stability index by setting is: under setting [1], 4.45 ± 0.17; under setting [2], 4.42 ± 0.25.
Consider LWAGSKGKEFGYFPRDAVQIEEVF [MIA2], for which the protein stability index runs as follows: under setting [1], 2.66 ± 0.51; under setting [2], 2.77 ± 0.46.
The corresponding values for LYNMDLSDDHIRVIVQLHKLRHLD [ZER1] are 2.25 ± 0.38 and 2.56 ± 0.37.
On the same counts, the results for LYRGLAPNFMKVIPAVSISYVVYE [SLC25A25] are 2.71 ± 0.67 and 3.25 ± 0.51.
LYRTLFSVINNGHNQKVHMHMVDL [PDS5B]: the protein stability index was 2.73 ± 0.56 under setting [1] and 2.77 ± 0.77 under setting [2].
On to LYTGELDENERDLMHIAHIAELLE [RHOBTB2], for which the protein stability index is 2.69 ± 0.33 under setting [1] and 3.09 ± 0.34 under setting [2].
On the same counts, the results for LYWRDIKQTGIVFGSFLLLLFSLT [RTN1] are 2.52 ± 0.22 and 2.35 ± 0.23.
The corresponding values for MAAGSEPESVEASPVVVEKSNSYP [KMT2E] are 5.3 ± 0.11 and 5.19 ± 0.24.
On the same counts, the results for MAEISRIQYEMEYTEGISQRMRVP [MFF] are 2.67 ± 0.3 and 2.79 ± 0.6.
Turning to MAGRPHPYDGNSSDPENWDRKLHS [BTBD10], the protein stability index by setting is: under setting [1], 4.63 ± 0.086; under setting [2], 4.71 ± 0.088.
MALPFFSLAEVRVGYQSQNISCFF [MYORG]: the protein stability index under setting [1] turned out to be 3.15 ± 1.1 and the protein stability index under setting [2] came out at 3.11 ± 0.89.
On the same counts, the results for MASNERDAISWYQKKIGAYDQQIW [PHTF1] are 2.51 ± 0.39 and 2.55 ± 0.16.
On the same counts, the results for MDNYADLSDTELTTLLRRYNIPHG [EMD] are 3.19 ± 0.11 and 3.37 ± 0.15.
For the sequence MDSGCWLFGGEFEDSVFEERPERR [C8orf76], the protein stability index by setting is: under setting [1], 4.06 ± 0.33; under setting [2], 4.29 ± 0.27.
The corresponding values for MEAMAASTSLPDPGDFDRNVPRIC [VDR] are 4.53 ± 0.11 and 4.53 ± 0.19.
The corresponding values for MEEASEGGGNDRVRNLQSEVEGVK [VAMP8] are 5.49 ± 0.19 and 5.38 ± 0.16.
The corresponding values for MERARDRLHLRRTTEQHVPEVEVQ [SNURF] are 4.77 ± 0.2 and 4.72 ± 0.06.
In turn, MFGLVIPLGVLQAIAMYFLPPSPR [SLC2A12] came in with a protein stability index under setting [1] of 2.46 ± 0.64 and a protein stability index under setting [2] of 2.53 ± 0.64.
Turning to MGGIMAPKDIMTNTHAKSILNSMN [KLHL12], the protein stability index under setting [1] stood at 2.83 ± 0.092 and the protein stability index under setting [2] is 3.27 ± 0.47.
The corresponding values for MLALRGQTGGDVNVEMDAAPGVDL [KRT16] are 4.25 ± 0.17 and 4.78 ± 0.17.
On the same counts, the results for MLSHDNITWIAGAVTKDFKLTDKH [ACSBG2] are 2.66 ± 0.42 and 2.86 ± 0.3.
Regarding MLWEHNSTIVVMLTKLREMGREKC [PTPRD], the protein stability index was 2.33 ± 0.55 under setting [1] and 2.15 ± 0.2 under setting [2].
The corresponding values for MMRREDEEEEGTMMKAKGDLEMKE [ZBED2] are 5.56 ± 0.25 and 5.64 ± 0.29.
With MNVDFDAPLGYKEPERQVQHEEST [UFD1], the protein stability index under setting [1] was 5.28 ± 0.062 and the protein stability index under setting [2] came out at 5.31 ± 0.29.
On the same counts, the results for MPPVSYDVQLLHSWNNNDRSLNVF [SPSB1] are 2.46 ± 0.15 and 2.26 ± 0.27.
For MPSKLFAGLVHVKQCIVAHPVNPP [CRYL1], the protein stability index by setting is: under setting [1], 2.37 ± 0.17; under setting [2], 2.46 ± 0.35.
Take MPSTPGFVGYNPYSHLAYNNYRLG [SMARCE1]: the protein stability index by setting is: under setting [1], 2.27 ± 0.099; under setting [2], 2.42 ± 0.23.
On the same counts, the results for MQQFLQKALEILRKDFSELRSAGV [FAM50A] are 3.67 ± 0.41 and 3.03 ± 0.25.
MRLPLPPAQVHSSLSAGEKPGFLA [RASAL3]: the protein stability index was 3.4 ± 0.085 under setting [1] and 3.35 ± 0.14 under setting [2].
Take MRPPMPPHGQYGGHHQGMPGYLPG [ZNF207]: the protein stability index is, setting by setting: under setting [1], 3.23 ± 0.3; under setting [2], 3.29 ± 0.18.
Turning to MSKLGKFFKGGGSSKSRAAPSPQE [CHMP4C], the protein stability index was determined as 3.56 ± 0.33 under setting [1] and 3.76 ± 0.38 under setting [2].
Turning to MSLLPDKKTVHYYAELGQCSVFPA [PLK2], the protein stability index under setting [1] is 2.41 ± 0.13 and the protein stability index under setting [2] was 2.44 ± 0.35.
The corresponding values for MSNHTRERVTVAKLTLENFYSNLI [STK38L] are 2.21 ± 0.16 and 2.31 ± 0.31.
Consider MSVDPACPQSLPCFEASDCKESSP [NANOGP8], for which the protein stability index by setting is: under setting [1], 5.44 ± 0.23; under setting [2], 5.41 ± 0.33.
On to MSWEKEEGKSRHVDFQCVKSKSIT [BTBD10], for which the protein stability index is, setting by setting: under setting [1], 4.48 ± 0.085; under setting [2], 4.42 ± 0.2.
The corresponding values for MTQQGAALQNYNNELVKCIEELCQ [SSNA1] are 3.33 ± 0.4 and 3.4 ± 0.31.
The corresponding values for MTSISLPSVMDPGAFETVLASAYT [ZBTB22] are 2.57 ± 0.23 and 2.72 ± 0.26.
On the same counts, the results for MTWSPLACGIVSGKYDSGIPPYSR [KCNAB2] are 3.19 ± 0.54 and 2.92 ± 0.3.
For MVGGNAVPQRTAGGDVPERELYIR [MYORG], the protein stability index under setting [1] stood at 3.9 ± 0.28 and the protein stability index under setting [2] turned out to be 4.29 ± 0.16.
With MVQLDSIEDLEVTCTWKLPTLAKF [PRAME], the protein stability index by setting is: under setting [1], 2.6 ± 0.45; under setting [2], 2.75 ± 0.64.
For MWRDLTDEEKQEYLNEYEAEKIEY [SMARCE1], the protein stability index reads like this: under setting [1], 4.26 ± 0.4; under setting [2], 4.35 ± 0.21.
For NAKAHCGATALHFAAEAGHIDIVK [FEM1B], the protein stability index amounted to 2.59 ± 0.36 under setting [1] and 2.62 ± 0.17 under setting [2].
In the case of NAYKDLAWKHGNIHLSAPCIYSEV [PCMTD1], the protein stability index by setting is: under setting [1], 2.31 ± 0.17; under setting [2], 2.15 ± 0.31.
On the same counts, the results for NDKFSFHEVKDNYIPVIKRALNSV [RHOBTB3] are 2.19 ± 0.49 and 2.41 ± 0.24.
NDMRDTPLHRAAFTGRKICSQGS [OSBPL1A]: the protein stability index is, setting by setting: (treatment: DMSO, c terminus: native) 2.87 ± 0.22; (treatment: MLN4924 1 uM, 8 h, c terminus: native) 2.73 ± 0.39.
With NDRMSTRHDGYATNDGNHPSCQET [RBMY1A1], the protein stability index under setting [1] stood at 5.17 ± 0.19 and the protein stability index under setting [2] is 5.22 ± 0.1.
The corresponding values for NETADLGLDIGAQGEPLGYRQDDP [CTNNB1] are 5.41 ± 0.2 and 5.46 ± 0.23.
Sequence NFDDILNVCDDYDVTCNEFFFDRN [KCNG1] registered a protein stability index under setting [1] of 3.4 ± 0.28 and a protein stability index under setting [2] of 3.27 ± 0.49.
On the same counts, the results for NHEEEVNTLRSQLGDRLNVEVDTA [KRT34] are 5.4 ± 0.33 and 5.441 ± 0.028.
